Source: US20100317583A1, “TREATMENT OF MELANOMA WITH ALPHA THYMOSIN PEPTIDES IN COMBINATION WITH AN ANTINEOPLASTIC HEAT SHOCK APOPTOSIS ACTIVATOR (HSAA)” (SciClone Pharmaceuticals, Inc., priority 2007, published 2010)
Where two headings read alike, the source gives them in different places. No end group written: not given here.

Assay type: in vivo
Settings: for Body weight (Mean ± SD) / PI (BW), inhibition of body weight vs vehicle: low-dose arms: TA-1 6 mg/kg s.c. daily, Pac 10 + Ele 10 mg/kg co-i.v. Days 1, 7, 13
Method: In this study, the anti-tumor effect of the combined treatment of thymosin alpha-1 (TA-1), Paclitaxel (Pac) and Elesclomol (Ele) was evaluated in C57BL/6 mice bearing B16 melanoma cells. The toxic effects of the dosing regimens were also monitored. A total of 60 mice were implanted subcutaneously with murine B16 cells, followed by treatment with TA-1 or Pac/Ele alone or in combination for 14 consecutive days. TA-1 was given daily via s.c., while Pac and Ele were co-i.v. administered on Day 1, 7 and 13. In total, 6 groups were used: Group 1: vehicle; Group 2: TA-1 6 mg/kg; Group 3: Pac 10 mg/kg+Ele 10 mg/kg; Group 4: Pac 30 mg/kg+Ele 30 mg/kg; Group 5: TA-1 6 mg/kg+Pac 10 mg/kg+Ele 10 mg/kg; and Group 6: TA-1 6 mg/kg+Pac 30 mg/kg+Ele 30 mg/kg. Tumor volume and body weight were measured every three days, and tumor weights were measured on Day 17 at the end of the study.
On Day 1, the animals were randomly assigned into different weight-matched groups, and dosing was started using the regimen according to Table 2. Briefly, TA-1 was administered once daily via subcutaneous (s.c.) injection for 14 consecutive days at a site different from that of tumor cell implantation, while Pac and Ele was administered on Days 1, 7, and 13 via an intravenous (i.v.) injection.
From Day 1 to Day 15, mortality and moribundity were checked twice daily, the body weights were recorded once every 3 days, and tumors were measured using a caliper once every 3 days. At the end of the study (Day 17), the animals were euthanized by CO2 asphyxiation, and the tumors were excised and weighed.
Toxicity of all treatment regimens was evaluated with the body weights of the study animals along with the drug-induced animal deaths. The inhibition of body weight was calculated using Excel according to the equation below:
PIBW(%)=100×(BW vehicle−BW drug treated)/BW vehicle
Inter-group comparison was performed in terms of tumor volume, tumor weight and body weight, using a student's t test. P values of less than 0.05 were considered to be statistically significant.

thymosin alpha 1 (SDAAVDTSSEITTKDLKEKKEVVEEAEN; ends and bridges not checked; UniProt P06454 2-29, looked up) [TA-1, 28 amino acid peptide with a molecular weight of 3108; immunomodulator]
Body weights (Day 0, animal F1): 21.5 g | Body weights (Day 0, animal F2): 20.8 g | Body weights (Day 0, animal F3): 19.3 g | Body weights (Day 0, animal F4): 20.0 g | Body weights (Day 0, animal F5): 19.9 g | Body weights (Day 0, animal M1): 21.8 g | Body weights (Day 0, animal M2): 21.5 g | Body weights (Day 0, animal M3): 22.9 g | Body weights (Day 0, animal M4): 20.7 g | Body weights (Day 0, animal M5): 21.4 g | Body weights (Day 3, animal F2): 19.0 g | Body weights (Day 3, animal F3): 20.2 g | Body weights (Day 3, animal F4): 19.8 g | Body weights (Day 3, animal F5): 19.1 g | Body weights (Day 3, animal M1): 21.1 g | Body weights (Day 3, animal M2): 17.8 g | Body weights (Day 3, animal M3): 19.7 g | Body weights (Day 3, animal M4): 20.4 g | Body weights (Day 3, animal M5): 19.8 g | Body weight (Mean ± SD) (Day 3): 19.44 ± 1.12 g | PI (BW), inhibition of body weight vs vehicle (Day 3): 1.17% | Body weights (Day 6, animal F2): 21.2 g | Body weights (Day 6, animal F3): 21.2 g | Body weights (Day 6, animal F4): 20.7 g | Body weights (Day 6, animal F5): 21.5 g | Body weights (Day 6, animal M1): 22.8 g | Body weights (Day 6, animal M2): 22.3 g | Body weights (Day 6, animal M3): 22.7 g | Body weights (Day 6, animal M4): 21.1 g | Body weights (Day 6, animal M5): 22.2 g | Body weight (Mean ± SD) (Day 6): 21.63 ± 0.81 g | PI (BW), inhibition of body weight vs vehicle (Day 6): −0.42% | Body weights (Day 9, animal F1): 20.4 g | Body weights (Day 9, animal F2): 20.7 g | Body weights (Day 9, animal F3): 20.4 g | Body weights (Day 9, animal F4): 20.2 g | Body weights (Day 9, animal F5): 20.0 g | Body weights (Day 9, animal M1): 22.5 g | Body weights (Day 9, animal M2): 21.2 g | Body weights (Day 9, animal M3): 22.5 g | Body weights (Day 9, animal M4): 20.9 g | Body weights (Day 9, animal M5): 21.7 g | Body weight (Mean ± SD) (Day 9): 21.05 ± 0.91 g | PI (BW), inhibition of body weight vs vehicle (Day 9): 1.13% | Body weights (Day 12, animal F1): 21.5 g | Body weights (Day 12, animal F2): 21.3 g | Body weights (Day 12, animal F3): 20.2 g | Body weights (Day 12, animal F4): 20.1 g | Body weights (Day 12, animal F5): 20.1 g | Body weights (Day 12, animal M1): 22.4 g | Body weights (Day 12, animal M2): 21.5 g | Body weights (Day 12, animal M3): 22.4 g | Body weights (Day 12, animal M4): 21.0 g | Body weights (Day 12, animal M5): 22.2 g | Body weight (Mean ± SD) (Day 12): 21.27 ± 0.91 g | PI (BW), inhibition of body weight vs vehicle (Day 12): 2.03% | Body weights (Day 15, animal F1): 21.7 g | Body weights (Day 15, animal F2): 21.5 g | Body weights (Day 15, animal F3): 21.2 g | Body weights (Day 15, animal F4): 21.2 g | Body weights (Day 15, animal F5): 21.1 g | Body weights (Day 15, animal M1): 22.5 g | Body weights (Day 15, animal M2): 22.5 g | Body weights (Day 15, animal M3): 23.4 g | Body weights (Day 15, animal M4): 22.0 g | Body weights (Day 15, animal M5): 23.6 g | Body weight (Mean ± SD) (Day 15): 22.07 ± 0.91 g | PI (BW), inhibition of body weight vs vehicle (Day 15): 1.25%
